Data: patent US20220313789A1, “TARGETING MELANOCORTIN 3 RECEPTOR FOR TREATMENT/PREVENTION OF EATING, METABOLISM, AND/OR EMOTIONAL DISORDERS” (The Regents of the University of Michigan, priority 2019, published 2022)
Entries after “also recorded” stand apart in the source; their conditions may differ. Bridge positions count the residues as written; N and C are the ends. Square brackets hold non-standard residues; d marks the D form. d2Nal = N[C@H](Cc1ccc2ccccc2c1)C(=O)O; Nle = CCCC[C@H](N)C(=O)O

Assays:
[1] = test system: MC3R KO mice; experiment: Feeding after i.c.v. administration in MC3R KO mice; format: in vivo
Experimental: FIG. 13. […] Data shown as mean+/−s.e.m. Panels A and B analyzed with Student's paired t-test. n=9 mice for panels A and B.
B: 24-hour food intake following administration of vehicle (aCSF) or C18 to WT mice. […] C: Change in BW following injection of vehicle or C18 (5 ug). D and E: Cumulative food intake (D) and 24-hour food intake (E) following C18 or vehicle administration in MC3R KO mice. […] F: Cumulative food intake following administration of the MC3R antagonist C11 or vehicle. […] G: 24-hour food intake in WT mice following administration of C11. H: Change in BW following injection of vehicle or C11 (5 ug). I and J: Food intake following i.c.v. injection of vehicle (DMSO, 500 nl) or C11 (5 ug, 500 nl) in MC3R KO mice. […] Data represents mean+/−s.e.m. […] Panels B, C, G, H, and J analyzed with unpaired Student's t-test. n=7 mice and n=8 mice for vehicle and C18 groups in panels A-C. n=19 mice for panels F and G. n=6 mice for vehicle and n=8 mice for C11 group in panel H. n=12 mice for vehicle and C18 group in panels D and E. n=8 mice for vehicle and C11 groups in panels I and J.
(§1) For central administration of MC3R agonist compounds we first administered vehicle injections (500 nl DMSO) for 2-4 consecutive days to habituate mice to handling and injection. […] Body weight was measured daily immediately prior to injections.

[2] = test system: AgRP neurons; experiment: Feeding after MC3R agonist with chemogenetic (hM4Di) inhibition of AgRP neurons; format: in vivo, mice
Experimental: FIG. 7. […] Either saline or CNO (1 mg/kg, i.p.) was administered fifteen minutes prior to i.c.v. injections. […] Data represented as mean+/−s.e.m.
A and B: Schematic of experimental strategy to express inhibitory DREADD virus in hypothalamic AgRP neurons (A) and representative image of DREADD transduced AgRP neurons (B). Scale bar, 200 um. C: Food intake following administration of C18 in the presence of saline or CNO (0.1 mg/kg, i.p.). […] D: RNAscope analysis of MC3R expression in WT and AgRP-MC3R KI mice. […] Scale bar, 500 um.
To inhibit AgRP neurons, the arcuate nucleus of AgRP-Cre mice was targeted with stereotaxic viral injections of Cre-dependent AAV viral vectors expressing the chemogenetic inhibitor hM4Di (FIG. 7).

[3] = target: T1, MC3R (Mus musculus, UniProt P33033); experiment: MC3R agonist feeding assays (food intake, body weight) in WT mice; format: in vivo
T1 construct: from tissue; host or cells: living mice (C57/BL6J background), central nervous system / hypothalamus
Experimental: Clozapine-N-Oxide (CNO) was purchased from Enzo Life Sciences. On the day of experiments fresh stock CNO (1 mg/0.1 ml) was prepared in water. CNO was administered via i.p. injections (200 ul Saline; 1 mg/kg). […] (5 ug; 500 nl DMSO).
Behavioral assays were performed on ad libitum fed mice. Mice were single caged for at least one week prior to starting feeding assays. Feeding assays were performed during the light period.
For peripheral administration of MC3R agonist compounds, mice were first habituated to vehicle injections (i.p.; saline in 10% DMSO; 200 ul) for 2-4 consecutive days. Following habituation and consecutive days of stable food intake in response to vehicle injections, agonist compounds were administered (i.p.; 10 mg/kg; saline in 10% DMSO). Food intake was measured following drug or vehicle administration by carefully removing food from the food hopper and weighing on a scale. Cages were changed daily during acute feeding assays to prevent spillage of food from the food hopper.
as §1

[4] = target: T1, MC3R; experiment: Open field test; format: in vivo, mice
Experimental: (§2) Anxiety behavioral assays were performed in the following order with 2-4 days separated between each anxiety assay: elevated plus maze, open field test, novelty suppressed feeding test. Behavioral assays were performed during the light cycle between 10 am-5 pm. Open field and elevated plus maze testing was performed in ad libitum fed mice with one exception.
Open field tests were performed as previously described (Refs. 55-57; herein incorporated by reference in their entireties). Mice were placed in the corner of a 50 cm×50 cm open field chamber. The center of the arena was marked as the 25 cm×25 cm area in the center of the open field. Exploratory activity was recorded for five minutes using ANYmaze software (Stoelting). Entries to the center, time in the center, distance in the center, and total distance traveled were automatically recorded with video tracking software. For PG992 experiments, mice were randomly assigned to receive either vehicle or PG992 injections. One week later the order of treatments was reversed such that each mouse received both vehicle and PG992 treatment in random order. For DREADD mediated assays, mice were administered CNO on the day of testing. Differences in open field activity between DREADD transduced mice and WT littermates were compared on testing day in response to CNO treatment. Similarly, MC3R KO and WT mice were testing in the open field on the same day in random order and differences in exploratory activity were calculated as previously described.

[5] = target: T1, MC3R; experiment: Elevated plus maze; format: in vivo, mice
Experimental: as §2
To perform elevated plus maze tests mice were initially placed into the closed arm of the elevated plus maze arena. The arena consisted of 2 50 cm long arms. One arm was enclosed by walls while the other arm was open. Activity in the maze was recorded for five minutes using animal tracking software (ANYmaze, Stoelting). Latency to enter the open arms, total distance traveled, entries to open arms, time in open arms, and distance traveled in the open arms was automatically calculated using tracking software. Treatment schedules for the elevated plus maze were identical to those described for the open field test.

[6] = target: T1, MC3R; experiment: Novelty suppressed feeding test; format: in vivo, mice; conditions: i.c.v., NSF test
Experimental: as §2
Prior to testing, mice were fasted overnight (6 pm-10 am). NSF testing was performed in the open field arena described above. Briefly, a single pellet of food (3-4 grams) was placed in the center of the open field. Mice were placed in the corner of the open field and their activity was automatically scored for ten minutes using animal tracking software. Latency to eat the food was manually recorded during testing. Feeding was scored as five consecutive seconds of chewing on the food.

[7] = i.c.v. 5 ug in 500 nl DMSO vs vehicle
[8] = 5 ug, i.c.v., elevated plus maze

T1 sequence (P33033 whole entry): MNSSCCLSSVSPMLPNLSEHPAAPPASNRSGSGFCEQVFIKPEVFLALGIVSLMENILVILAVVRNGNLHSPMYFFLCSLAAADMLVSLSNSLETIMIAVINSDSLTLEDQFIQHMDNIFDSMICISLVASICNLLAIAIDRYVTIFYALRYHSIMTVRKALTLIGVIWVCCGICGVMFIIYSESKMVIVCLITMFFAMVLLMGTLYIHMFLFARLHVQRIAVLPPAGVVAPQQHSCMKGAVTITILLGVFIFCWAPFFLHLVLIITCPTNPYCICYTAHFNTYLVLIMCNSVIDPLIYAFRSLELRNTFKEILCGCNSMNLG

“Ac-Arg-Arg-(pI)DPhe-Tic-NH2 [compound 18]” was tested, and the “Food intake, cumulative/acute and 24-hour” value ([1]; i.c.v. 5 ug vs vehicle) was “No difference in food intake was detected following C18 administration” and the “Food intake in the presence of saline or CNO” value ([2]; C18, CNO 0.1 mg/kg, i.p., inhibitory DREADD in AgRP neurons) was “increased food intake following administration of saline but not following CNO mediated inhibition of AgRP neurons”.
For “Ac-Nle-c[Asp-Trp-Pro-DNal(2′)-Arg-Trp-Lys]-NH2 (Ac-[Nle]DWP[d2Nal]RWK-NH2; lactam 2-8) [PG992]”, the weight gain ([3]; 3 days of treatment) was 8%, the “24 h food intake” value ([3]; PG990 series of peptides, route not given in the sentence) was “increases 24 h food intake” and the “stimulation of food intake” value ([3]; central injection (i.c.v.), 5 μg) was roughly 50%. For the same substance, the “24-hour food intake compared with chemogenetic (DREADD) neuron activation” value ([3]; i.c.v. PG992 vs CNO/hM3Dq) was “increased 24-hour food intake to a greater extent than chemogenetic activation of AgRP neurons; also recorded: even more potent inducer of 24 h food intake than DREADD activation of MC3R ARC neurons; also recorded: produced a greater change in 24-hour food intake than AgRP neuron activation”, the “Feeding in response to central administration” value ([3]; i.c.v., 5 ug in 500 nl DMSO, vs vehicle) was “acutely stimulated feeding at all measured time-points” and the “Food intake at 4 and 24 hours” value ([3]; i.c.v., 5 ug, single injection) was “increased food intake at both 4 hours and 24 hours post injection”. For the same substance, the “increase in body weight each treatment day” value ([3]; once daily i.c.v. injections) was 2-3%, the Daily food intake ([3]; once daily i.c.v. injections (5 ug)) was “increased daily 24-hour food intake on each day of treatment” and the “duration of food intake stimulation” value ([3]; single i.c.v. injection) was “at least 24 hours”. The 24-hour food intake [1, 7] was “No significant difference in 24-hour food intake”, the Acute food intake [1, 7] was “No significant difference in food intake” and the body weight ([1]; icv) was “no activity on food intake or body weight”. The food intake ([1]; icv) was “no activity on food intake or body weight; also recorded: No effect on food intake”, the “PG992 induced stimulation of food intake under AgRP neuron inhibition” value ([2]; CNO (1 mg/kg, i.p.) before PG992 5 ug i.c.v., hM4Di in AgRP neurons) was “significantly reduced the ability of PG992 to stimulate feeding; also recorded: significantly reduced in the presence of AgRP neuron inhibition” and the “4-hour, 8-hour and 24-hour food intake” value ([2]; PG992 5 ug i.c.v., saline or CNO (1 mg/kg, i.p.) fifteen minutes before) was “robustly stimulated food intake at 4 hours, 8 hours, and 24 hours; also recorded: increased food intake following both saline and CNO injections at all time-points”. For the same substance, the “distance traveled in the center” value ([4]; 5 ug, i.c.v.) was “increased the distance traveled in the center; also recorded: increased distance traveled in the center”, the “entries in the center” value ([4]; 5 ug, i.c.v.) was “increased entries to the center; also recorded: increased distance traveled in the center and entries in the center” and the “latency to enter the center” value ([4]; 5 ug, i.c.v.) was “decreased the latency to enter the center; also recorded: reduced latency to enter the center of the arena”. For the same substance, the total distance traveled ([4]; 5 ug, i.c.v.) was “Total distance traveled was also increased”, the anxiolytic activity ([4]; ICV, elevated plus maze, and novelty suppressed feeding assay) was “clear anxiolytic activity” and the “Entries to the open arms” value [5, 8] was “trended towards being higher; also recorded: entered the open arms more frequently”. The “distance traveled in the open arms” value [5, 8] was “increasing distance traveled in the open arms; also recorded: traveled more distance in the open arms”, the “latency to enter the open arms” value [5, 8] was “decreasing latency to enter the open arms; also recorded: entered the open arms faster” and the total distance traveled [5, 8] was “increased total distance traveled in the elevated plus maze”. The distance traveled [6] was “without significantly effecting total distance traveled; also recorded: did not affect distance traveled”, the latency to eat [6] was “decreased latency to feed; also recorded: reduced latency to eat” and the total time eating [6] was “increased total time eating”.
“H-Tyr-Val-Met-Gly-His-Phe-Arg-DTrp-Asp-Arg-Phe-Gly-OH [D-Trp8-γ-MSH]” was tested, and the “anxiety in the elevated plus maze assay” value ([5]; single peripheral injection) was “trend towards reduction of anxiety”.
